This is an account of results in patent publication US20180155451A1 (published 2018).

Test [1] addresses T1, FcγRIIa R (extracellular domain, C-terminal His tag) (human, UniProt P12318 34-217).
T1 construct: extracellular domain; also called FcgRIIa R type; 2aR; not shown: His tag attached to the C terminus
T1 sequence (looked up): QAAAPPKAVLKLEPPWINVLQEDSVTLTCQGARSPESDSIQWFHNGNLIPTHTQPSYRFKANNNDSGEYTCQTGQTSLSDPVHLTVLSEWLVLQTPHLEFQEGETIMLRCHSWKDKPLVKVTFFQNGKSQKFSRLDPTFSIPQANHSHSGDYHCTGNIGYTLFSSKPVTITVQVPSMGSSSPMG
The test can be described thus: ratio of He/Con_2aR to He/Con_2b (FcγRIIb); SPR relative binding. On the procedure: (§1) The heterodimerized antibodies He Abs in which one of the H chains was introduced with an alteration were assayed for their binding activities to each activating FcγR and inhibitory FcγR according to the method described in Example 4. […] The activating FcγRs in FIGS. 26, 27, 28, and 29 are FcγRIa, FcγRIIa (R), FcγRIIa (H), and FcγRIIIa, respectively.
(§2) Analysis of interaction between objective antibody and the FcγR was carried out using Biacore T100 (GE Healthcare). HBS-EP+ (GE Healthcare) was used as the running buffer, and the measurement temperature was set to 25° C. Chips produced by immobilizing the antigen peptide by the amine coupling method to a Series S Sencor Chip CM5 (GE Healthcare), or alternatively, chips produced by allowing preliminarily biotinylated antigen peptides to interact with and immobilize onto a Series S Sensor Chip SA (certified) (GE Healthcare) were used. Antibodies of interest were captured onto an antigen peptide-immobilized chip, and allowed to interact to each FcγR diluted with running buffer. To regenerate and repeatedly use the chip, the antibodies captured on the chip were washed off by reacting 10 mM glycine-HCl, pH 1.5.

Test [2] addresses T1, FcγRIIa R (extracellular domain, …). The test can be described thus: SPR (Biacore), antibody captured on antigen-peptide chip, FcγR as analyte; relative binding amount. On the procedure:
as §1, §2
Background: Surface plasmon resonance follows binding to a sensor surface in real time, without labels.

Test [3] concerns the target T2, FcγRIIb (extracellular domain, C-terminal His tag) (human, UniProt P31994 43-217).
T2 construct: extracellular domain; also called FcgRIIb; 2b; not shown: His tag attached to the C terminus
T2 sequence (looked up): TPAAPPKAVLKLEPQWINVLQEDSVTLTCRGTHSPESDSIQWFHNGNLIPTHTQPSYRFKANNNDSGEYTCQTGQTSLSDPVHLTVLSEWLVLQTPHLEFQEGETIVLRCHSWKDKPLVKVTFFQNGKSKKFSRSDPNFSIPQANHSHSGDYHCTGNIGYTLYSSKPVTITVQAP
The description is as above. On the procedure:
as §1, §2

Test [4] has as its target T3, FcγRIIa H (human, UniProt P12318 34-217).
T3 construct: extracellular domain; also called FcgRIIa H type; 2aH
T3 sequence (looked up): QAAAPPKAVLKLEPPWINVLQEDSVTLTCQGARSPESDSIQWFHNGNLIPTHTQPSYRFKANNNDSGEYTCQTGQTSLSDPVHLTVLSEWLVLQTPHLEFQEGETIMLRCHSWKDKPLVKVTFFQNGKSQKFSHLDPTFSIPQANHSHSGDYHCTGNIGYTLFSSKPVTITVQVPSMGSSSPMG
As to the kind of experiment: ratio of He/Con_2aH to He/Con_2b (relative SPR binding to FcγRIIa H over that of the same antibody to FcγRIIb).

Another test deals with T4, FcγRIIb (human, UniProt P31994 43-217).
T4 construct: extracellular domain; also called FcgRIIb; 2b
T4 sequence (looked up): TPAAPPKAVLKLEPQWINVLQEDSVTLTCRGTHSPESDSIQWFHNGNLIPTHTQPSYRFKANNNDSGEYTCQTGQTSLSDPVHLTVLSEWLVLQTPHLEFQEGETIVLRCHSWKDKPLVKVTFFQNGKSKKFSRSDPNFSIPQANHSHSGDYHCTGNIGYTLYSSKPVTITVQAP
The test can be described thus: SPR (Biacore), antibody captured on antigen-peptide chip, FcγR as analyte; binding relative to GpH7-A5/GpH7-B3/GpL16-k0 = 100.

For test [5], the target named is T3, FcγRIIa H. The test is described as above.

B1: GpH7-A5/GpH7-B3 variant S239_15Y/GpL16-k0 (antibody, human IgG1, kappa)
heavy 1: not shown
heavy 2: not shown
light: DIVMTQSPLSLPVTPGEPASISCQASESLVHSNRNTYLHWYLQKPGQSPQLLIYKVSNRFSGVPDRFSGSGSGTDFTLKISRVEAEDVGVYYCSQNTHVPPTFGQGTKVEIERTVAAPSVFIFPPSDEQLKSGTASVVCLLNNFYPREAKVQWKVDNALQSGNSQESVTEQDSKDSTYSLSSTLTLSKADYEKHKVYACEVTHQGLSSPVTKSFNRGEC
notes: Heterodimerized anti-glypican-3 IgG1; alteration in only one H chain (GpH7-B3 side); also called He Ab
B1: the “He_2aR/2b (IIaR/IIb)” value in test [1] came to 1.21. Further, in test [2], the He/Con_2aR was 42.2 % of control (GpH7-A5/GpH7-B3/GpL16-k0 = 100). Besides, the He/Con_2b in test [3] was 34.9 % of control (GpH7-A5/GpH7-B3/GpL16-k0 = 100).

B2: GpH7-A5/GpH7-B3 variant D265_04F/GpL16-k0 (antibody, human IgG1, kappa)
heavy 1: not shown
heavy 2: not shown
light: DIVMTQSPLSLPVTPGEPASISCQASESLVHSNRNTYLHWYLQKPGQSPQLLIYKVSNRFSGVPDRFSGSGSGTDFTLKISRVEAEDVGVYYCSQNTHVPPTFGQGTKVEIERTVAAPSVFIFPPSDEQLKSGTASVVCLLNNFYPREAKVQWKVDNALQSGNSQESVTEQDSKDSTYSLSSTLTLSKADYEKHKVYACEVTHQGLSSPVTKSFNRGEC
notes: Heterodimerized anti-glypican-3 IgG1; substitution in only one H chain (the GpH7-B3 chain); also called He Ab
Take B2: the “He_2aH/2b (IIaH/IIb)” value with FcγRIIa H [4] was determined as 1.28. Also, in the test with FcγRIIb, the He/Con_2b is 3.2 % of HeCon Ab. Also, the He/Con_2aH with FcγRIIa H [5] was 4.1 % of HeCon Ab.

B3: GpH7-A5/GpH7-B3 variant D265_11K/GpL16-k0 (antibody, human IgG1, kappa)
heavy 1: not shown
heavy 2: not shown
light: DIVMTQSPLSLPVTPGEPASISCQASESLVHSNRNTYLHWYLQKPGQSPQLLIYKVSNRFSGVPDRFSGSGSGTDFTLKISRVEAEDVGVYYCSQNTHVPPTFGQGTKVEIERTVAAPSVFIFPPSDEQLKSGTASVVCLLNNFYPREAKVQWKVDNALQSGNSQESVTEQDSKDSTYSLSSTLTLSKADYEKHKVYACEVTHQGLSSPVTKSFNRGEC
notes: as for B2
In the case of B3, the “He_2aH/2b (IIaH/IIb)” value in the test with FcγRIIa H [4] amounted to 1.87. The He/Con_2b in the test with FcγRIIb is 14.9 % of HeCon Ab. The He/Con_2aH in the test with FcγRIIa H [5] is 27.8 % of HeCon Ab.

B4: GpH7-A5/GpH7-B3 variant S239_16H/GpL16-k0 (antibody, human IgG1, kappa)
heavy 1: not shown
heavy 2: not shown
light: DIVMTQSPLSLPVTPGEPASISCQASESLVHSNRNTYLHWYLQKPGQSPQLLIYKVSNRFSGVPDRFSGSGSGTDFTLKISRVEAEDVGVYYCSQNTHVPPTFGQGTKVEIERTVAAPSVFIFPPSDEQLKSGTASVVCLLNNFYPREAKVQWKVDNALQSGNSQESVTEQDSKDSTYSLSSTLTLSKADYEKHKVYACEVTHQGLSSPVTKSFNRGEC
notes: as for B1
In the case of B4, the “He_2aR/2b (IIaR/IIb)” value in test [1] is 1.4. Further, the He/Con_2aR in test [2] is 69.2 % of control (GpH7-A5/GpH7-B3/GpL16-k0 = 100). In addition, the He/Con_2b in test [3] was 49.4 % of control (GpH7-A5/GpH7-B3/GpL16-k0 = 100).

B5: GpH7-A5/GpH7-B3 variant D265_07I/GpL16-k0 (antibody, human IgG1, kappa)
heavy 1: not shown
heavy 2: not shown
light: DIVMTQSPLSLPVTPGEPASISCQASESLVHSNRNTYLHWYLQKPGQSPQLLIYKVSNRFSGVPDRFSGSGSGTDFTLKISRVEAEDVGVYYCSQNTHVPPTFGQGTKVEIERTVAAPSVFIFPPSDEQLKSGTASVVCLLNNFYPREAKVQWKVDNALQSGNSQESVTEQDSKDSTYSLSSTLTLSKADYEKHKVYACEVTHQGLSSPVTKSFNRGEC
notes: as for B2
In the case of B5, the “He_2aH/2b (IIaH/IIb)” value in the test with FcγRIIa H [4] was found to be 2.35. For the same molecule, the He/Con_2b with FcγRIIb was 1.3 % of HeCon Ab. Besides, the He/Con_2aH with FcγRIIa H [5] was 3.1 % of HeCon Ab.

B6: GpH7-A5/GpH7-B3 variant D265_06M/GpL16-k0 (antibody, human IgG1, kappa)
heavy 1: not shown
heavy 2: not shown
light: DIVMTQSPLSLPVTPGEPASISCQASESLVHSNRNTYLHWYLQKPGQSPQLLIYKVSNRFSGVPDRFSGSGSGTDFTLKISRVEAEDVGVYYCSQNTHVPPTFGQGTKVEIERTVAAPSVFIFPPSDEQLKSGTASVVCLLNNFYPREAKVQWKVDNALQSGNSQESVTEQDSKDSTYSLSSTLTLSKADYEKHKVYACEVTHQGLSSPVTKSFNRGEC
notes: as for B2
With B6, the “He_2aH/2b (IIaH/IIb)” value with FcγRIIa H [4] came out at 1.35. Besides, the He/Con_2b in the test with FcγRIIb was 10 % of HeCon Ab. Besides, the He/Con_2aH in the test with FcγRIIa H [5] is 13.5 % of HeCon Ab.

B7: GpH7-A5/GpH7-B3 variant D265_12R/GpL16-k0 (antibody, human IgG1, kappa)
heavy 1: not shown
heavy 2: not shown
light: DIVMTQSPLSLPVTPGEPASISCQASESLVHSNRNTYLHWYLQKPGQSPQLLIYKVSNRFSGVPDRFSGSGSGTDFTLKISRVEAEDVGVYYCSQNTHVPPTFGQGTKVEIERTVAAPSVFIFPPSDEQLKSGTASVVCLLNNFYPREAKVQWKVDNALQSGNSQESVTEQDSKDSTYSLSSTLTLSKADYEKHKVYACEVTHQGLSSPVTKSFNRGEC
notes: as for B2
With B7, the “He_2aH/2b (IIaH/IIb)” value in the test with FcγRIIa H [4] worked out at 1.87. For the same molecule, the He/Con_2b with FcγRIIb is 15 % of HeCon Ab. In addition, the He/Con_2aH with FcγRIIa H [5] was 28 % of HeCon Ab.
